In article PMC6996132 (Cell Reports, 2020):
Positions count from the first letter of the chain named. Numbers in names are those of the source.

B1: His-SUMO-hnRNPDL isoform 2 D259N (natural protein, human)
chain: MEDMNEYSNIEEFAEGSKINASKNQQDDGKMFIGGLSWDTSKKDLTEYLSRFGEVVDCTIKTDPVTGRSRGFGFVLFKDAASVDKVLELKEHKLDGKLIDPKRAKALKGKEPPKKVFVGGLSPDTSEEQIKEYFGAFGEIENIELPMDTKTNERRGFCFITYTDEEPVKKLLESRYHQIGSGKCEIKVAQPKEVYRQQQQQQKGGRGAAAGGRGGTRGRGRGQGQNWNQGFNNYYDQGYGNYNSAYGGDQNYSGYGGYNYTGYNYGNYGYGQGYADYSGQQSTYGKASRGGGNHQNNYQPY
B2: His-SUMO-hnRNPDL isoform 2 D259H (natural protein, human)
chain: B1 chain with N259H

Target: the molecule itself
Assay: amyloid aggregation

Protein | binding result
B1 | binds
B2 | binds
